Drawing on paper PMC11235164, this text covers Kd for one molecule.

The test deals with T1, trigger factor (Escherichia coli), P0A850.
T1 chain: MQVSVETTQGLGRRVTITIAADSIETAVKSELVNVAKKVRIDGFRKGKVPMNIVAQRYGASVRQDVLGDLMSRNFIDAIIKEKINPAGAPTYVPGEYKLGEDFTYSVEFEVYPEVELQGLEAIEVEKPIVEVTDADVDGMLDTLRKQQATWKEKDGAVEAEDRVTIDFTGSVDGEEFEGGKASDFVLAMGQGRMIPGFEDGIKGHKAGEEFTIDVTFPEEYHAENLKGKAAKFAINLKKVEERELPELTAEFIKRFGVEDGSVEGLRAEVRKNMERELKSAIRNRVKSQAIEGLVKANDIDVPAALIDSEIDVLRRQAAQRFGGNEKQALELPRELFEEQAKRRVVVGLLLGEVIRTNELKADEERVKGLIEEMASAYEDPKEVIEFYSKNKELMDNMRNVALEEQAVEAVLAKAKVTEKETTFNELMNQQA
Put plainly: microfluidic diffusional sizing. Conditions: remark: other sources report otherwise.

B1: trigger factor, P0A850 (protein)
chain: MQVSVETTQGLGRRVTITIAADSIETAVKSELVNVAKKVRIDGFRKGKVPMNIVAQRYGASVRQDVLGDLMSRNFIDAIIKEKINPAGAPTYVPGEYKLGEDFTYSVEFEVYPEVELQGLEAIEVEKPIVEVTDADVDGMLDTLRKQQATWKEKDGAVEAEDRVTIDFTGSVDGEEFEGGKASDFVLAMGQGRMIPGFEDGIKGHKAGEEFTIDVTFPEEYHAENLKGKAAKFAINLKKVEERELPELTAEFIKRFGVEDGSVEGLRAEVRKNMERELKSAIRNRVKSQAIEGLVKANDIDVPAALIDSEIDVLRRQAAQRFGGNEKQALELPRELFEEQAKRRVVVGLLLGEVIRTNELKADEERVKGLIEEMASAYEDPKEVIEFYSKNKELMDNMRNVALEEQAVEAVLAKAKVTEKETTFNELMNQQA
The molecule B1 registered a Kd of 1.5 µM.
